From paper PMC4897654, “hSSB1 (NABP2/OBFC2B) is regulated by oxidative stress” (Scientific Reports, 2016)
Where a chain is given by its changes, count along the chain named. In names and notes the source's numbering stands.

Columns and labels:
[1] = target: the molecule itself; assay: non-reducing SDS-PAGE; recombinant hSSB1 proteins purified under non-reducing conditions, no reducing agent; Coomassie blue (2 μg) and anti-hSSB1 immunoblot (500 ng)
[2] = target: the molecule itself; assay: non-reducing SDS-PAGE with immunoblot; whole cell lysates of U2OS cells (2% O2) treated with 250 μM H2O2 or 30 mM KBrO3 for 30 min; loading buffer without DTT; probed for endogenous hSSB1
[3] = target: the molecule itself; assay: SEC-MALS; non-reduced (oxidized) protein, ~200-250 μg on Superose 12 10/30; 20 mM Tris pH 7, 100 mM NaCl, 1 mM EDTA, without TCEP

B1: recombinant C99S hSSB1 (natural protein, human, UniProt Q9BQ15 1-211, looked up)
chain: MTTETFVKDIKPGLKNLNLIFIVLETGRVTKTKDGHEVRTCKVADKTGSINISVWDDVGNLIQPGDIIRLTKGYASVFKGCLTLYTGRGGDLQKIGEFSMVYSEVPNFSEPNPEYSTQQAPNKAVQNDSNPSASQPTTGPSAASPASENQNGNGLSAPPGPGGGPHPPHTPSHPPSTRITRSQPNHTPAGPPGPSSNPVSNGKETRRSSKR
notes: human hSSB1 (NABP2/OBFC2B) with cysteine 99 mutated to serine; source: E. coli T7 shuffle strain, purified under non-reducing conditions
B1: binds [1].

B2: recombinant C81S hSSB1 (natural protein, human, UniProt Q9BQ15 1-211, looked up)
chain: B1 chain with C81S, S99C
notes: human hSSB1 (NABP2/OBFC2B) with cysteine 81 mutated to serine; source: E. coli T7 shuffle strain, purified under non-reducing conditions
B2: binds [1].

B3: human single-stranded DNA binding protein 1 (hSSB1), endogenous (natural protein, human (endogenous in U2OS), UniProt Q9BQ15 1-211, looked up)
chain: B1 chain with S99C
notes: also called NABP2; OBFC2B; source: endogenous, U2OS whole cell lysate
With B3 the “stoichiometry N” value [2] was ~4.

B4: recombinant hSSB1 (hexa-histidine tagged, wild type) (natural protein, human, UniProt Q9BQ15 1-211, looked up)
chain: B1 chain with S99C
notes: Oxidized and reduced preparations are the same construct; also called his-hSSB1; hSSB1 WT; source: E. coli T7 shuffle strain (Δgor ΔtrxB), purified (SP sepharose, Ni-NTA, Superdex200); without reducing agents ("oxidized") or with 1 mM DTT in all buffers ("reduced")
For B4, the “stoichiometry N” value [3] was > 3 and the “stoichiometry N” value [1] was 2.
